Source: US20150203579A1 (Regeneron, published 2015)
Residue numbers refer to the chain shown, from its start. In names and notes the source's numbering stands.

T1: recombinant cynomolgus monkey PD-1 expressed with a C-terminal myc-myc-hexahistidine tag (cynomolgus monkey (Macaca fascicularis))
T1 construct: monomeric; also called MfPD-1-MMH
T1 chain: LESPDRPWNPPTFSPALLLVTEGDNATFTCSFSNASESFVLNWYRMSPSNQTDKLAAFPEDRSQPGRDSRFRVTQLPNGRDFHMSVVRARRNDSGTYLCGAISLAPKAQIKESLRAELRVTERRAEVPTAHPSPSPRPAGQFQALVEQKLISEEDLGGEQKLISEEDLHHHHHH

B1: H2aM7780N (antibody, mouse IgG2a, V domains shown)
VH: QVQLVESGGGVVQSGRSLRLSCAASGFTFSSYGMHWVRQAPGKGLEWVAVIWYDGSNIYYSDSVKGRFTISRANSKNTLYLQMNSLRAEDTAVYYCARPGHWNYFFEYWGQGTLVTVSS
VL: DIQMTQSPSSLSASVGDRVTITCRASQSINNYLNWYQQKPGKAPKLLIYTASSLQSGVPSRFSGSGSGTDFTLTISSLQPEDFATYYCQQSYSTPPLTFGQGTQLEIK
notes: Human variable regions, mouse IgG2a Fc (H2aM prefix); also called H2M7780N
B2: H2aM7796N (antibody, mouse IgG2a, V domains shown)
VH: QVQLVESGGGVVQPGRSLRLSCAASGFTFSSYGMHWVRQAPGKGLEWVAIIWSDGDSEYNLDSVKGRFTISRDNSKNTLYLQMNSLRVEDSAVYYCARDRDLEDIWGQGTMVTVSS
VL: DIQMTQSPSSLSASVGDRVTITCRASQGIRNDLGWYQQKPGKAPKRLIYAASNLQSGVPSRFSGSGSGTEFTLTISSLQPEDFATYYCLQHNSYPLTFGGGTKVEIK
notes: Human variable regions, mouse IgG2a Fc; also called H2M7796N
B3: H4xH8992P (antibody, V domains shown)
VH: EVQLVESGGGLVQPGRSLRLSCVASGFALHDYAMHWVRQVPGKGLEWVSSISWNSGVIGYADSLKGRFTISRDNAKNSLYLQMNSLRAEDTALYYCAKGSGSYYVSWFDPWGQGTLVTVSS
VL: not shown
notes: Human IgG4 Fc with 2 or more amino acid changes (H4xH)
B4: H2aM7788N (antibody, mouse IgG2a, V domains shown)
VH: EVQLVESGGGLVQPGGSLRLSCGASGFTFRNYDMHWVRQITGKGLEWVSAIGSAGDTYYPDSVKGRFTISRENAKNSLYLQMNSLRVGDTAVYYCTRDIHCSSTRCYGMDVWGQGTTVTVSS
VL: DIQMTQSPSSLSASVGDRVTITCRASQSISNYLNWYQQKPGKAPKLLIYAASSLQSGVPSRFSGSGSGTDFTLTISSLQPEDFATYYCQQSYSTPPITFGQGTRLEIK
notes: Human variable domains, mouse IgG2a Fc; also called H2M7788N
B5: H4xH9037P (antibody, human IgG4, V domains shown)
VH: EVQLVESGGGLVQPGGSLRLSCAASGFTFDDYAMHWVRQAPGKGLEWVSGIGWSSGSIGYADSVKGRFTISRDNAKNSLYLQMDSLRPEDSALYYCAKAYTFMITLYFDYWGQGTLVTVSS
VL: not shown
notes: H4xH: modified human IgG4 Fc; also called H4xH9037P2
B6: H2aM7780N (antibody, mouse IgG2a, V domains shown)
VH: B1 VH
VL: B1 VL
notes: also called H2M7780N
B7: H1M7789N (antibody, mouse IgG1, V domains shown)
VH: EVQLLESGGGLVQPGGSLRLSCSASGFTFSSYTMNWVRQAPGKGLEWVSGISDTGGNTYYTDSVKGRFTVSRDNSKNTLSLQMNSLRAEDTAVYYCAKDQGGSYPYYFHYWGQGSLVTVSS
VL: B1 VL with N30S, N31S, N34I, K42T, L46F, T50A, S65C, L97I, Q104R
notes: Human variable domains, mouse IgG1 Fc (H1M prefix)
B8: H4H7795N2 (antibody, human IgG4 S228P, kappa, V domains shown)
VH: EVQVVESGGGLVEPGRSLRLSCKASGFTFDDYAMHWVRQTPGKALEWVSGISWSGNNIGYADSVKGRFTISKDDAKNSLYLQMNSLRPEDTALYYCTKDISITGTLDAFDVWGQGTMVTVSS
VL: DIQMTQSPISVSASVGDRVTITCRASQGISNWLAWYQQKPGIAPKLLIYSASSLQSGVPSRFRGSGSGTDFTLTIGSLQPEDFATYYCQQAHSFPLTFGGGTKVEIKR
B9: H2aM7795N (antibody, mouse IgG2a, V domains shown)
VH: B8 VH with S52N
VL: DIQMTQSPISVSASVGDRVTITCRASQGISNWLAWYQQKPGIAPKLLIYSASSLQSGVPSRFRGSGSGTDFTLTIGSLQPEDFATYYCQQAHSFPLTFGGGTKVEIK
notes: Human variable domains, mouse IgG2a Fc; also called H2M7795N
B10: H4xH8992P (antibody, human IgG4, V domains shown)
VH: B3 VH
VL: not shown
notes: H4xH: modified human IgG4 Fc
B11: H4xH9128P2 (antibody, human IgG4, V domains shown)
VH: QVQLQESGPGLVKPSETLSLTCTVSGGSISSYHWNWIRQSPGKGLEWIGYIYYIGSTDYNPSLESRVTISVDTSKNQFSLKLSSVTAADTAVYYCARVPVGATGASDVWGQGTMVTVSS
VL: not shown
notes: H4xH: modified human IgG4 Fc
B12: H2aM7791N (antibody, mouse IgG2a, V domains shown)
VH: QMQLQQWGAGLLKPSETLSLTCVVYGGSLNGYYWSWIRQSPGKGLEWIGEIDHSGSTNYNPSLKNRVTMSVDTSKIQFSLKLTSVTVADTAVYYCAREGLLPFDYWGQGTLVTVSS
VL: EIVLTQSPGTLSLSPGERVTLSCRASQSVYSNYLAWYQQNPGQAPRLLIYAASNRATGIPDRFSGSGSGTDFTLTISRLEPEDFAVYYCHQYATSPWTFGQGTKVEIK
notes: Human variable domains, mouse IgG2a Fc; also called H2M7791N
B13: H4H9019P (antibody, human IgG4, V domains shown)
VH: EVQLVESGGGVVRPGGSLRLSCAASGFTFDDYGMSWVRQVPGKGLEWVSGISWNDGKTVYAESVKGRFIISRDNAKNSLYLEMNSLRAEDTALYYCARDWQYLIERYFDYWGQGTLVTVSS
VL: not shown
notes: Fully human, human IgG4 Fc (H4H prefix)
B14: H4xH9035P (antibody, human IgG4, V domains shown)
VH: B13 VH with G10R, V40L, S49A, Y80H, E105D, Y110F
VL: not shown
notes: H4xH: modified human IgG4 Fc; also called H4xH9035P2
B15: H2aM7794N (antibody, V domains shown)
VH: QLQLQESGPDLVKPSDTLSLTCTVSDDSISSTTYYWAWIRQPPGKGLEWIGSMSYNGNNYYNPSLKSRVAISAGTSQKQFSLKLTSVTAADTAVYHCARHLGYNGNWYPFDFWGQGILVTVSS
VL: not shown
notes: Human variable domains, mouse IgG2a Fc; also called H2M7794N
B16: H4xH9120P2 (antibody, human IgG4, V domains shown)
VH: QVQLVQSGAEVKRPGASVKVSCKASGYTFTSFYMYWVRQAPGQGLEWMGIINPSDGSTSNAQKFQGRVTMTRDTSTSTVYMELSSLRSEDTAVYYCARRVAGDIFDIWGQGTMVTVSS
VL: not shown
notes: H4xH: modified human IgG4 Fc
B17: H4xH9145P2 (antibody, human IgG4, V domains shown)
VH: QVQLVESGGGVVQPGRSLRLSCSASGFTFSAYAMHWVRQAPGKGLEWVAAISYGGSDKYYADSVKGRFTISRDNSKNTLYLQMNSLRTDDTAVYYCAKSAHWNFFFDYWGQGTLVTVSS
VL: not shown
notes: H4xH: modified human IgG4 Fc
B18: H1M7800N (antibody, mouse IgG1, V domains shown)
VH: EVQLVESGGGLVQPGGSLRLSCAASGFTVSNNYMSWVRQAPGKGLEWVSVIYSGGFTYYTDSVKGRFTISRHNSKNTLYLQMNSLRAEDTAVYYCARYYYDTSDYWTFFDYWGQGTLVTVSS
VL: EIVMTQSPATLSVSPGERATLSCRASQSVSSNLAWYQQKPGQAPRLLIYGASTRATGIPARFSGSGSGTEFTLTISSLQSGDFAVYYCQQYNNWPLTFGGGTKVEIN
notes: Human variable domains, mouse IgG1 Fc
B19: H4xH9135P2 (antibody, human IgG4, V domains shown)
VH: EVQLVESGGSVVRPGGSLRLSCVVSGFTFEDYGLSWVRQIPGKGLEWVSGISWTGGNTGYADSVKGRFTISRDNAKNSLYLQMNSLRAEDTALYHCTRDRQWLMQWYFDYWGQGTLVTVSS
VL: not shown
notes: H4xH: modified human IgG4 Fc
B20: H4xH9034P (antibody, V domains shown)
VH: EVQLVESGGGVVRPGGSLRLSCTASGFTFDDYGMSWVRQAPGKGLEWISGIGWTGGRSSYADSVRGRFTISRDNAKNSLYLQMNSLGAEDTALYYCARDRQWLVQWYFDYWGQGTLVTVSS
VL: not shown
notes: Human IgG4 Fc with 2 or more amino acid changes as in US20100331527 (H4xH prefix); also called H4xH9034P2

These binders were tested against T2, human PD-1 dimer (human PD-1-mFc or human PD-1-hFc) (human, UniProt Q15116 25-170) (assay: SPR, mAb captured, 37C;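 note: Real-time Biacore biosensor, PD-1 dimer flowed over anti-PD-1 antibody surface, rate constants fitted to a 1:1 model, KD derived as kd/ka and t½ as ln2/(60·kd)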).
T2 construct: also called hPD-1-mFc; hPD1-hFc
T2 sequence (Q15116 25-170 C93S): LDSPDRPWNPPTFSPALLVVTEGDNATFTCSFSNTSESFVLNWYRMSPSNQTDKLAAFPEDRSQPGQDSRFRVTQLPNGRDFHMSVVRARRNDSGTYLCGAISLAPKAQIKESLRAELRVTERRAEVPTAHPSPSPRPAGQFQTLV

Row | Kd | koff | kon | t½ | Binder
1 | 0.23 nM | 2.29e-05 s⁻¹ | 99400 M⁻¹ s⁻¹ | 505 min | B1
2 | 19.6 nM | 0.000434 s⁻¹ | 22100 M⁻¹ s⁻¹ | 27 min | B2
3 | 2.91 nM |  |  | 11 min | B3

These binders were tested against T3, recombinant human PD-1 expressed with a C-terminal myc-myc-hexahistidine tag (human) (assay: SPR (Biacore), mAb captured, hPD-1-MMH injected, 25 C;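 note: rate constants obtained by fitting sensorgrams to a 1:1 binding model, KD derived as kd/ka and half-life as ln2/(60·kd) in minutes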).
T3 construct: also called hPD-1-MMH; human PD-1-MMH

Row | Kd | koff | kon | t½ | Binder
4 | 19.6 nM | 0.000388 s⁻¹ | 19700 M⁻¹ s⁻¹ | 30 min | B4
5 | 10.9 nM | 0.000795 s⁻¹ | 73200 M⁻¹ s⁻¹ | 15 min | B5
6 | 38.5 nM | 0.000359 s⁻¹ | 9320 M⁻¹ s⁻¹ | 32 min | B6
7 | 2.1 nM | 5.31e-05 s⁻¹ | 25300 M⁻¹ s⁻¹ | 218 min | B7
8 | 23.3 nM | 0.00148 s⁻¹ | 63500 M⁻¹ s⁻¹ | 8 min | B8
9 | 23.5 nM | 0.00115 s⁻¹ | 49100 M⁻¹ s⁻¹ | 10 min | B9
10 | 141 nM |  |  | 0.5 min | B10
11 | 14.5 nM | 0.000719 s⁻¹ | 49500 M⁻¹ s⁻¹ | 16 min | B11
12 | 23.4 nM | 0.000706 s⁻¹ | 30100 M⁻¹ s⁻¹ | 16 min | B12
13 | 39.4 nM |  |  |  | B13
14 | 4.62 nM | 0.000475 s⁻¹ | 103000 M⁻¹ s⁻¹ | 24 min | B14
15 | 38 nM | 0.00212 s⁻¹ | 55000 M⁻¹ s⁻¹ | 5.4 min | B15
16 | 30.1 nM | 0.000998 s⁻¹ | 33200 M⁻¹ s⁻¹ | 12 min | B16
17 | 38.5 nM | 0.00134 s⁻¹ | 34700 M⁻¹ s⁻¹ | 8.6 min | B17
18 | 161 nM | 0.00947 s⁻¹ | 58800 M⁻¹ s⁻¹ | 1.2 min | B18
19 | 10.2 nM | 0.0012 s⁻¹ | 117000 M⁻¹ s⁻¹ | 10 min | B19
20 | 14.5 nM | 0.00149 s⁻¹ | 102000 M⁻¹ s⁻¹ | 7.8 min | B20

Biological target: T1, recombinant cynomolgus monkey PD-1 …
Assay: SPR, mAb captured, 25C;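 for result: rates from fitting Biacore data for PD-1 binding to anti-PD-1 antibodies with a 1:1 model, KD computed as koff/kon and t½ as ln2/(60·koff)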

Row | Kd | koff | kon | t½ | binding result | Binder
21 | 31.5 nM | 0.000315 s⁻¹ | 10000 M⁻¹ s⁻¹ | 37 min |  | B1
22 |  |  |  |  | no binding (tested: up to 200 nM) | B2
23 | 200 nM |  |  | 0.3 min |  | B3

Biological target: T1, recombinant cynomolgus monkey PD-1 …
Assay: SPR, mAb captured, 37C;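 note: rate constants from fitting sensorgrams to a 1:1 binding model, with Kd computed as koff/kon and half-life as ln2/(60·koff), PD-1 flowing over anti-PD-1 antibody surfaces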

Row | Kd | koff | kon | t½ | Binder
24 | 60.5 nM | 0.00138 s⁻¹ | 22900 M⁻¹ s⁻¹ | 8.3 min | B1

Each binder was assayed against T2, human PD-1 dimer (human PD-1-mFc or …) (assay: SPR, mAb captured, 25C;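 for result: rates from fitting Biacore data for PD-1 binding to anti-PD-1 antibodies with a 1:1 model, KD computed as koff/kon and t½ as ln2/(60·koff)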).

Row | Kd | koff | kon | t½ | Binder
25 | 0.236 nM | 9.94e-06 s⁻¹ | 42100 M⁻¹ s⁻¹ | 1160 min | B1
26 | 3.32 nM | 8.67e-05 s⁻¹ | 26100 M⁻¹ s⁻¹ | 133 min | B2
27 | 0.68 nM |  |  | 72 min | B3

Each binder was assayed against T4, recombinant human PD-1 expressed with a C-terminal myc-myc-hexahistidine tag (human) (assay: SPR, mAb captured, 37C;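 note: rate constants from fitting sensorgrams to a 1:1 binding model, KD derived as kd divided by ka and half-life as ln2/(60·kd)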).
T4 construct: monomeric; also called hPD-1-MMH; human PD-1-MMH

Row | Kd | koff | kon | t½ | Binder
28 | 55.8 nM | 0.00152 s⁻¹ | 27200 M⁻¹ s⁻¹ | 7.6 min | B1
29 | 1510 nM | 0.0165 s⁻¹ | 10900 M⁻¹ s⁻¹ | 0.7 min | B2
